Test results reported in JP2024028198A.
Substitutions are numbered along the chain they refer to.

B1: 抗PAD4抗体2-1-47 (antibody, human IgG1, lambda, V domains shown)
VH: EVQLLESGGGLVQPGGSLRLSCAASGFTFSTYAMGWVRQAPGKGLEFVAAIRNDGSWTGYGTPYKTRFTISRDNSKNTLYLQMSSLRAEDTAVYYCAKYTGSSGGSIGAWGQGTLVTVSS
VL: SYELTQPPSVSVSPGQTARITCSGGNRNYYYGWYQQKPGQAPVTVIYANDKRPSGIPERFSGSNSGSTTTLTISGVQAEDEADYYCGTATTGKYVFGGGTKLTVLG
B2: 抗PAD4抗体4-2-25 (antibody, human IgG1, lambda, V domains shown)
VH: B1 VH with G61P, T62P, Y64L, T66G
VL: B1 VL with T90Y
B3: 抗PAD4抗体3-1-39 (antibody, human IgG1, lambda, V domains shown)
VH: B1 VH with Y60T, G61S, T62V, P63N, Y64A
VL: B1 VL
B4: 抗PAD4抗体3-2-37 (antibody, human IgG1, lambda, V domains shown)
VH: B1 VH with Y60I, T62Y, P63N, Y64Q, T66S, A97G
VL: B1 VL with T90L

Biological target: ヒ卜PAD4(Cayman Chemical company、Cat. 10500) (human) (UniProt Q9UM07)
Sequence of UniProt Q9UM07 (Q9UM07 whole entry): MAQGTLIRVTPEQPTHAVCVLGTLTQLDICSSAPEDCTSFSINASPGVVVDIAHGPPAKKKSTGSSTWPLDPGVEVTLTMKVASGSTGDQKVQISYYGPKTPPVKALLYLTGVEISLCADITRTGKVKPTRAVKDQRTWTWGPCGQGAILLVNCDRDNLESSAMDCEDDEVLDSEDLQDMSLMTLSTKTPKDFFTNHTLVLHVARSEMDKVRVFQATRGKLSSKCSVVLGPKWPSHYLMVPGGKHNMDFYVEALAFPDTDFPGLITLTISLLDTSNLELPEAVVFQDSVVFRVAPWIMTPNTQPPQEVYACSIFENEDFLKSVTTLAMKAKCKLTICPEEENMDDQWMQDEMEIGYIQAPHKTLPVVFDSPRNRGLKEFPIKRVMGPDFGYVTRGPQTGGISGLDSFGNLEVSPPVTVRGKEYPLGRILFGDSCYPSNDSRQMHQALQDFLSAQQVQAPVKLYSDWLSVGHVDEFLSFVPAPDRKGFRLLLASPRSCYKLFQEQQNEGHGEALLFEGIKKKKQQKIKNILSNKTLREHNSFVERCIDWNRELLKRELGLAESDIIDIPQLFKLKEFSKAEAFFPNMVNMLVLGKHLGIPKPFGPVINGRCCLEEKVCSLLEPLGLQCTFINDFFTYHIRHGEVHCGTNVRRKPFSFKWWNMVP
Experiment: SPR Biacore T200, stored antibody captured on Protein A chip, human PAD4 at 50 nM as analyte

Row | Binder | 抗原結合活性 (relative antigen binding after 40℃ for 4 weeks against 4℃ for 4 weeks)
1 | B1 | > 90%
2 | B2 | > 90%
3 | B3 | > 90%
4 | B4 | > 90%
